Source: US9598479B2, “Nanoparticle-peptide compositions” (Midatech Ltd., priority 2011, dated 2017)
Numbered stars: 1 amine (or outer) side, 2 acyl side, 3 side chain; on linkers, the order of the positions; unused ones are H or OH. Square brackets hold non-standard residues; d marks the D form. Ends that are not written are not given here. Cysteamide = C(CS[*:3])N[*:1]; Mpa = O=C(O)CCS

How the values were obtained:
[1] = Aggregation and solubilisation of nanoparticle preparations; assay type: physicochemical; details: for aggregation of NP after repeat production: 75% methanol in the synthesis stage; for solubility of aggregates in alkali: 300 mM NaOH; for aggregation of NP after production: first production (95% methanol); for solubility of aggregates: water, 10% acetic acid, PBS, DMSO or DMF
Description: The following method was used; 1.5 μmole peptide was dissolved in 2 ml methanol, followed by the addition of 30 μmole GlcC2 in 200 μl methanol, and 116 μl of aqueous gold chloride containing 10 μmole Au. The sample was vortexed for 30 sec, shaken for approximately 5 min and then under rapid vortexing for a total of 30 sec 200 μl of 1M NaBH4 was added, tubes were sealed and then gently shaken for 1.5 h.
Samples were bench spun the supernatant removed and the dark pellet dissolved in 2 ml water, and then transferred to a 10 kDa vivaspin for a total of 4 times 2 ml water washes each of 8 min at 5 Krpm.
Nanoparticles (NPs) were removed from the vivaspins and made up to 500 μl with water, they were then subjected to 15 Krpm bench spin to remove any large aggregates.
NP's 2-5 were produced by a variation using 75% methanol not 95% in the synthesis stage.

LK^b cells = experiment: Flow cytometry measure of […] presentation (25.D1.16 antibody); assay type: cell-based, mouse; details: for processing and presentation of SIINFEKL from GNP, flow cytometric method: LKb cells pulsed 2 h with GNP equivalent to 1, 0.1 or 0.01 ug/mL peptide, FIG. 1A-D
Description: (§1) Next, GNPs were pulsed to the equivalent of 1 ug/mL peptide (Green), 0.1 ug/mL (Blue), or 0.01 ug/mL (Red). After two hours, cells were washed, and subjected to (A-D) flow cytometric labelling with 25.D1.16 (Angel) antibody, or (E) combined with B3Z CTL for overnight co-culture. The next day, cells were lysed and Beta-galactosidase activity was measured.
In order to analyze epitope linkage to nanoparticles, we first optimized a readout assay for the presentation of the epitope released from the nanoparticle. For this purpose, […] (SEQ ID NO: 2) presentation in LK^b cells was evaluated. As mentioned earlier, more than one reagent exists. Of the two methods tested, one is flow cytometry-based, while the other is cell-based. The flow cytometry-based method begins with pulsing LK^b cells with differing amounts of […] (SEQ ID NO: 2) peptide. After allowing enough time for peptide binding to surface K^b molecules, cells were washed and incubated with the 25.D1.16 antibody which is specific to the […]:K^b (SEQ ID NO: 2) complex. Next, the cells were secondarily labelled and subjected to flow cytometry analysis using unpulsed cells as the background reading.
LK^b cells were treated with varying amounts of […] (SEQ ID NO: 2) peptides. […] Cells were then washed two times in PBS and incubated for 30 min on ice with FITC-labeled goat anti-mouse IgG secondary antibody (Caltag Laboratories, Burlingham, Calif.). Finally, cells were washed two times with PBS and resuspended in PBS+0.1% BSA for flow cytometry on a Guava EasyCyte Plus Flow Cytometer (Millipore, Billerica, Mass.) and analyzed using the accompanying software.
(§2) To assay […] (SEQ ID NO: 2) presentation using a flow cytometric or cell-based method, we pulsed LK^b cells in a 15 mL conical at 37° C. for 2 hrs. Following this incubation, cells were washed once with PBS and then subjected to detection using flow cytometry or added to B3Z cells at an effector to target ratio of 1:1.
(§3) […] (SEQ ID NO: 2), an epitope derived from ovalbumin that is presented in the context of the murine MHCI molecule H-2 Kb, was measured using two methods. One method utilized a TCR-like antibody termed 25.D1.16, also referred to as “Angel”, that recognize […] (SEQ ID NO: 2)/MHCI complex. In addition, we assessed presentation using the B3Z, […] (SEQ ID NO: 2) peptide specific CTL hybridoma, which expresses β-galactosidase under the NFAT (CTL signaling molecule) promoter, which upon activation express beta-gal measured by a light emitting substrate.

[2] = test system: B3Z (OVA peptide specific T cell line); experiment: B3Z T cell activation (β-galactosidase) measure of antigen presentation; assay type: cell-based, mouse; details: for processing and presentation of SIINFEKL from GNP, CTL-based method: LKb cells pulsed 2 h with GNP equivalent to 1, 0.1 or 0.01 ug/mL peptide, overnight co-culture with B3Z, FIG. 1E
Description: as §1
Another form of epitope-specific antigen presentation is the measurement of T cell activation by the MHCI peptide complex. Here, we used B3Z (OVA peptide specific T cell line), which recognizes […] (SEQ ID NO: 2) the context of K^b. As a convenient measure, this T cell line contains β-galactosidase cloned with the NFAT promoter. Upon peptide recognition and T cell activation, β-galactosidase is expressed and conversion of a detectible substrate serves as an excellent measure of antigen presentation to T cells.
To evaluate this method, we performed a similar experiment as above. LK^b cells were pulsed with […] (SEQ ID NO: 2) peptide, washed, and then co-incubated with B3Z T cell line overnight. The next day, cells were lysed and β-galactosidase was measured using a luminescent substrate. As expected, the resolution of this method was similar to the previous method with the limit of detection at approximately 5 ng/mL.
The […]:Kb-specific T hybridoma (B3Z) (SEQ ID NO: 2) expresses (β-galactosidase upon recognition of peptide-MHC class I complexes and has been described previously (3, 6). T cell hybridomas were maintained in complete RPMI plus 10% FCS and 0.05 mM 2-ME. Activation was measured using the luminescent substrate Galactolight Plus (Applied Biosystems, Foster City, Calif.) according to the manufacturer's instructions. Light intensity was measured using a TopCount NXT plate reader (Perkin Elmer, Waltham, Mass.).
as §2, §3

Substance | aggregation of NP after repeat production [1] | solubility of aggregates in alkali [1] | aggregation of NP after production [1] | solubility of aggregates [1] | processing and presentation of SIINFEKL from GNP, flow cytometric method (LK^b cells) | processing and presentation of SIINFEKL from GNP, CTL-based method [2] | also measured
NP2: gold nanoparticle with GlcC2 ligands and peptide ligand 2, SIINFEKL-N—(CH2)2-SH | ‘normal’ NP |  |  |  |  |  | 
NP 3: gold nanoparticle with GlcC2 ligands and peptide ligand 3, FLSIINFEKL-N—(CH2)2-SH (FLSIINFEKL-Cysteamide; also: on gold nanoparticle with GlcC2 ligands) | formed aggregates | total NP solubilisation | large near complete aggregation | not soluble |  |  | 
GNP 12: gold nanoparticle with GlcC2 ligands and peptide ligand 12, HS—(CH2)10-(CH2OCH2)7-CONH-FLAAYSIINFEKL ({HS‑(CH2)10‑(CH2OCH2)7‑CO}-FLAAYSIINFEKL; also: on gold nanoparticle with GlcC2 ligands) |  |  |  |  | good processing and presentation | good processing and presentation | 
GNP 8: gold nanoparticle with GlcC2 ligands and peptide ligand 8, HS(CH2)2-CONH-FLAAYSIINFEKL ([Mpa]FLAAYSIINFEKL; numbers in words are those of the source; also: on gold nanoparticle with GlcC2 ligands) |  |  |  |  | good processing and presentation | good processing and presentation | presentation from preparations lacking free peptide, flow cytometry (LK^b cells; Sephadex G-50 purified new GNP vs old GNP, FIGS. 3C-E): work just as well as those containing peptide; presentation from preparations lacking free peptide, B3Z assay ([2]; Sephadex G-50 purified new GNP vs old GNP, overnight incubation, FIG. 3F): confirmed
SIINFEKL (listed as Gallus gallus) [reference compound] |  |  |  |  |  |  | lowest pulse concentration at which surface SIINFEKL:K^b complexes were detected (LK^b cells; LK^b cells pulsed with free SIINFEKL peptide, unpulsed cells as background): 5 ng/mL; limit of detection ([2]; LK^b cells pulsed with free SIINFEKL peptide, co-incubated with B3Z overnight, luminescent substrate): approximately 5 ng/mL
NP 4: gold nanoparticle with GlcC2 ligands and peptide ligand 4, FLAAYSIINFEKL-N—(CH2)2-SH (FLAAYSIINFEKL-Cysteamide; also: on gold nanoparticle with GlcC2 ligands) | formed aggregates | total NP solubilisation | large near complete aggregation | not soluble |  |  | 
